Measured values taken from patent US20240263193A1 (published 2024).

T1: CP5-46-4D5E
T1 peptide: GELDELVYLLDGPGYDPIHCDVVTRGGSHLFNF


Columns and labels:
CP5-46-4D5E = biological target: T1, CP5-46-4D5E; assay: cell-based or functional assay
EGFP(R96M)-AlfaTag = assay: cell-based or functional assay

Binder | fold change of the grazoprevir treated iADAR compared to DMSO treated, unmutated Pep-NS3 system, 4xUAG MS2 reporter, HEK293FT, flow cytometry (intramolecular pair) (CP5-46-4D5E) [fold] | ratio of mNeonGreen to mCherry (mNG/mCh), 2 µM grazoprevir against no drug, HEK cells, microscopy (intramolecular pair) (CP5-46-4D5E) [fold] | median relative fluorescence of the 4xUAG-MS2 reporter, A-1331852 plus EGFP(R96M)-AlfaTag against A-1331852 alone, HEK293FT, flow cytometry (EGFP(R96M)-AlfaTag) [fold]
NS4A/NS3 (Genotype 1B) (enzyme) GSVVIVGRIILSGSGSITAYSQQTRGLLGCIITSLTGRDKNQVEGEVQVVSTATQSFLATCVNGVCWTVYHGAGSKTLAGPKGPITQMYTNVDQDLVGWQAPPGARSLTPCTCGSSDLYLVTRHADVIPVRRRGDSRGSLLSPRPVSYLKGSSGGPLLCPSGHAVGIFRAAVCTRGVAKAVDFVPVESMETTMRS | ~31 | ~18 | 
ALFA-Bcl dual input iADAR (other) MASNFTQFVLVDNGGTGDVTVAPSNFANGIAEWISSNSRSQAYKVTCSVRQSSAQNRKYTIKVEVPKGAWRSYLNMELTIPIFATNSDCELIVKAMQGLLKDGNPIPSAIAANSGIYGGSGSGAGSGSPAGGGAPGSGGGSTGAPPNLWAAQRYGRELRRMSDEFVDSFKKASQLHLPQVLADAVSRLVLGKFGDLTDNFSSPHARRKVLAGVVMTTGTDVKDAKVISVSTGTKCINGEYMSDRGLALNDCHAEIISRRSLLRFLYTQLELYLNNKDDQKRSIFQKSERGGFRLKENVQFHLYISTSPCGDARIFSPHEPILEEPAASGSGPGRLEEELRRRLSPGTGDRHPNRKARGQLRTKIESGQGTIPVRSNASIQTWDGVLQGERLLTMSCSDKIARWNVVGIQGSLLSIFVEPIYFSSIILGSLYHGDHLSRAMYQRISNIEDLPPLYTLNKPLLSGISNAEARQPGKAPNFSVNWTVGDSAIEVINATTGKDELGRASRLCKHALYCRWMRVHGKVPSHLLRSKITKPNVYHESKLAAKEYQAAKARLFTAFIKAGLGAWVEKPTEQDQYSLTGSGGTAEVQLQESGGGLVQPGGSLRLSCTASGVTISALNAMAMGWYRQAPGERRVMVAAVSERGNAMYRESVQGRFTVTRDFTNKMVSLQMDNLKPEDTAVYYCHVLEDRVDSFHDYWGQGTQVTVSSGAGSGASSNRELVVDFLSYKLSQKGYSWSQFSDVEENRTEAPEGTESEMETPSAINGNPSWHLADSPAVNGATGHSSSLDAREVIPMAAVKQALREAGDEFELRYRRAFSDLTSQLHITPGTAYQSFEQVVNELFRDGVNWGRIVAFFSFGGALCVESVDKEMQVLVSRIAAWMATYLNDHLEPWIQENGGWDTFVELYGNNGSSELIKENMHMKLYMEGTVDNHHFKCTSEGEGKPYEGTQTMRIKVVEGGPLPFAFDILATSFLYGSKTFINHTQGIPDFFKQSFPEGFTWERVTTYEDGGVLTATQDTSLQDGCLIYNVKIRGVNFTSNGPVMQKKTLGWEAFTETLYPADGGLEGRNDMALKLVGGSHLIANIKTTYRSKKPAKNLKMPGVYYVDYRLERIKEANNETYVEQHEVAVARYCDLPSKLGHKLN |  |  | ~110
